# Results from patent US12630600B2 (MEDIMMUNE LIMITED, priority 2022, dated 2026).
# Starred links: 1 amine or outer side, 2 acyl side, 3 side chain; linkers in the order of their positions; H or OH if unused. Non-standard residues stand in square brackets, D forms with d. Groups on a side chain read outwards from the residue. No end group written: not given here. *: point of attachment. C20 diacid = O=C(O)CCCCCCCCCCCCCCCCCCC(=O)*; C18 diacid = O=C(O)CCCCCCCCCCCCCCCCC(=O)*; γGlu = O=C(O)[C@H](CCC(=O)[*:2])N[*:1]; αMeF = C[C@](N)(Cc1ccccc1)C(=O)O; AEEA = NCCOCCOCC(=O)O; Aib = CC(C)(N)C(=O)O
# B1: Peptide 144 (peptide)
# peptide: H[Aib]QGTFTSDVSK[αMeF]LDSK([γGlu-γGlu-AEEA-AEEA-γGlu-γGlu-C18 diacid])RARDFVRWLLE[Aib]G-OH
# modifications: N-terminus assumed
# SMILES: CC(C)C[C@H](NC(=O)[C@H](Cc1c[nH]c2ccccc12)NC(=O)[C@H](CCCNC(=N)N)NC(=O)[C@@H](NC(=O)[C@H](Cc1ccccc1)NC(=O)[C@H](CC(=O)O)NC(=O)[C@H](CCCNC(=N)N)NC(=O)[C@H](C)NC(=O)[C@H](CCCNC(=N)N)NC(=O)[C@H](CCCCNC(=O)CC[C@H](NC(=O)CC[C@H](NC(=O)COCCOCCNC(=O)COCCOCCNC(=O)CC[C@H](NC(=O)CC[C@H](NC(=O)CCCCCCCCCCCCCCCCC(=O)O)C(=O)O)C(=O)O)C(=O)O)C(=O)O)NC(=O)[C@H](CO)NC(=O)[C@H](CC(=O)O)NC(=O)[C@H](CC(C)C)NC(=O)[C@](C)(Cc1ccccc1)NC(=O)[C@H](CCCCN)NC(=O)[C@H](CO)NC(=O)[C@@H](NC(=O)[C@H](CC(=O)O)NC(=O)[C@H](CO)NC(=O)[C@@H](NC(=O)[C@H](Cc1ccccc1)NC(=O)[C@@H](NC(=O)CNC(=O)[C@H](CCC(N)=O)NC(=O)C(C)(C)NC(=O)[C@@H](N)Cc1c[nH]cn1)[C@@H](C)O)[C@@H](C)O)C(C)C)C(C)C)C(=O)N[C@@H](CC(C)C)C(=O)N[C@@H](CCC(=O)O)C(=O)NC(C)(C)C(=O)NCC(=O)O
# B2: Peptide 141 (peptide)
# peptide: H[Aib]QGTFTSDVSK[αMeF]LDSK([AEEA-AEEA-γGlu-C18 diacid])RAQDFVAWLLE[Aib]G-OH
# modifications: N-terminus assumed
# SMILES: CC(C)C[C@H](NC(=O)[C@H](Cc1c[nH]c2ccccc12)NC(=O)[C@H](C)NC(=O)[C@@H](NC(=O)[C@H](Cc1ccccc1)NC(=O)[C@H](CC(=O)O)NC(=O)[C@H](CCC(N)=O)NC(=O)[C@H](C)NC(=O)[C@H](CCCNC(=N)N)NC(=O)[C@H](CCCCNC(=O)COCCOCCNC(=O)COCCOCCNC(=O)CC[C@H](NC(=O)CCCCCCCCCCCCCCCCC(=O)O)C(=O)O)NC(=O)[C@H](CO)NC(=O)[C@H](CC(=O)O)NC(=O)[C@H](CC(C)C)NC(=O)[C@](C)(Cc1ccccc1)NC(=O)[C@H](CCCCN)NC(=O)[C@H](CO)NC(=O)[C@@H](NC(=O)[C@H](CC(=O)O)NC(=O)[C@H](CO)NC(=O)[C@@H](NC(=O)[C@H](Cc1ccccc1)NC(=O)[C@@H](NC(=O)CNC(=O)[C@H](CCC(N)=O)NC(=O)C(C)(C)NC(=O)[C@@H](N)Cc1c[nH]cn1)[C@@H](C)O)[C@@H](C)O)C(C)C)C(C)C)C(=O)N[C@@H](CC(C)C)C(=O)N[C@@H](CCC(=O)O)C(=O)NC(C)(C)C(=O)NCC(=O)O
# B3: Peptide 142 (peptide)
# peptide: H[Aib]QGTFTSDVSK[αMeF]LDSK([AEEA-AEEA-γGlu-C18 diacid])RARDFVAWLLE[Aib]G-OH
# modifications: N-terminus assumed
# SMILES: CC(C)C[C@H](NC(=O)[C@H](Cc1c[nH]c2ccccc12)NC(=O)[C@H](C)NC(=O)[C@@H](NC(=O)[C@H](Cc1ccccc1)NC(=O)[C@H](CC(=O)O)NC(=O)[C@H](CCCNC(=N)N)NC(=O)[C@H](C)NC(=O)[C@H](CCCNC(=N)N)NC(=O)[C@H](CCCCNC(=O)COCCOCCNC(=O)COCCOCCNC(=O)CC[C@H](NC(=O)CCCCCCCCCCCCCCCCC(=O)O)C(=O)O)NC(=O)[C@H](CO)NC(=O)[C@H](CC(=O)O)NC(=O)[C@H](CC(C)C)NC(=O)[C@](C)(Cc1ccccc1)NC(=O)[C@H](CCCCN)NC(=O)[C@H](CO)NC(=O)[C@@H](NC(=O)[C@H](CC(=O)O)NC(=O)[C@H](CO)NC(=O)[C@@H](NC(=O)[C@H](Cc1ccccc1)NC(=O)[C@@H](NC(=O)CNC(=O)[C@H](CCC(N)=O)NC(=O)C(C)(C)NC(=O)[C@@H](N)Cc1c[nH]cn1)[C@@H](C)O)[C@@H](C)O)C(C)C)C(C)C)C(=O)N[C@@H](CC(C)C)C(=O)N[C@@H](CCC(=O)O)C(=O)NC(C)(C)C(=O)NCC(=O)O
# B4: Peptide 139 (peptide)
# peptide: H[Aib]QGTFTSDVSK[αMeF]LDSK([γGlu-γGlu-AEEA-AEEA-γGlu-γGlu-C20 diacid])RAQDFVRWLLE[Aib]G-OH
# B5: Peptide 137 (peptide)
# peptide: H[Aib]QGTFTSDVSK[αMeF]LDSK([γGlu-γGlu-AEEA-AEEA-γGlu-γGlu-C18 diacid])RAQDFVRWLLEG[Aib]-OH
# modifications: N-terminus assumed
# SMILES: CC(C)C[C@H](NC(=O)[C@H](CC(C)C)NC(=O)[C@H](Cc1c[nH]c2ccccc12)NC(=O)[C@H](CCCNC(=N)N)NC(=O)[C@@H](NC(=O)[C@H](Cc1ccccc1)NC(=O)[C@H](CC(=O)O)NC(=O)[C@H](CCC(N)=O)NC(=O)[C@H](C)NC(=O)[C@H](CCCNC(=N)N)NC(=O)[C@H](CCCCNC(=O)CC[C@H](NC(=O)CC[C@H](NC(=O)COCCOCCNC(=O)COCCOCCNC(=O)CC[C@H](NC(=O)CC[C@H](NC(=O)CCCCCCCCCCCCCCCCC(=O)O)C(=O)O)C(=O)O)C(=O)O)C(=O)O)NC(=O)[C@H](CO)NC(=O)[C@H](CC(=O)O)NC(=O)[C@H](CC(C)C)NC(=O)[C@](C)(Cc1ccccc1)NC(=O)[C@H](CCCCN)NC(=O)[C@H](CO)NC(=O)[C@@H](NC(=O)[C@H](CC(=O)O)NC(=O)[C@H](CO)NC(=O)[C@@H](NC(=O)[C@H](Cc1ccccc1)NC(=O)[C@@H](NC(=O)CNC(=O)[C@H](CCC(N)=O)NC(=O)C(C)(C)NC(=O)[C@@H](N)Cc1c[nH]cn1)[C@@H](C)O)[C@@H](C)O)C(C)C)C(C)C)C(=O)N[C@@H](CCC(=O)O)C(=O)NCC(=O)NC(C)(C)C(=O)O
# B6: Peptide 138 (peptide)
# peptide: H[Aib]QGTFTSDVSK[αMeF]LDSK([γGlu-γGlu-AEEA-AEEA-γGlu-γGlu-C18 diacid])RAQDFVRWLLE[Aib]G-OH
# modifications: N-terminus assumed
# SMILES: CC(C)C[C@H](NC(=O)[C@H](Cc1c[nH]c2ccccc12)NC(=O)[C@H](CCCNC(=N)N)NC(=O)[C@@H](NC(=O)[C@H](Cc1ccccc1)NC(=O)[C@H](CC(=O)O)NC(=O)[C@H](CCC(N)=O)NC(=O)[C@H](C)NC(=O)[C@H](CCCNC(=N)N)NC(=O)[C@H](CCCCNC(=O)CC[C@H](NC(=O)CC[C@H](NC(=O)COCCOCCNC(=O)COCCOCCNC(=O)CC[C@H](NC(=O)CC[C@H](NC(=O)CCCCCCCCCCCCCCCCC(=O)O)C(=O)O)C(=O)O)C(=O)O)C(=O)O)NC(=O)[C@H](CO)NC(=O)[C@H](CC(=O)O)NC(=O)[C@H](CC(C)C)NC(=O)[C@](C)(Cc1ccccc1)NC(=O)[C@H](CCCCN)NC(=O)[C@H](CO)NC(=O)[C@@H](NC(=O)[C@H](CC(=O)O)NC(=O)[C@H](CO)NC(=O)[C@@H](NC(=O)[C@H](Cc1ccccc1)NC(=O)[C@@H](NC(=O)CNC(=O)[C@H](CCC(N)=O)NC(=O)C(C)(C)NC(=O)[C@@H](N)Cc1c[nH]cn1)[C@@H](C)O)[C@@H](C)O)C(C)C)C(C)C)C(=O)N[C@@H](CC(C)C)C(=O)N[C@@H](CCC(=O)O)C(=O)NC(C)(C)C(=O)NCC(=O)O
# B7: Peptide 143 (peptide)
# peptide: H[Aib]QGTFTSDVSK[αMeF]LDSK([AEEA-AEEA-γGlu-C18 diacid])RARDFVQWLLE[Aib]G-OH
# modifications: N-terminus assumed
# SMILES: CC(C)C[C@H](NC(=O)[C@H](Cc1c[nH]c2ccccc12)NC(=O)[C@H](CCC(N)=O)NC(=O)[C@@H](NC(=O)[C@H](Cc1ccccc1)NC(=O)[C@H](CC(=O)O)NC(=O)[C@H](CCCNC(=N)N)NC(=O)[C@H](C)NC(=O)[C@H](CCCNC(=N)N)NC(=O)[C@H](CCCCNC(=O)COCCOCCNC(=O)COCCOCCNC(=O)CC[C@H](NC(=O)CCCCCCCCCCCCCCCCC(=O)O)C(=O)O)NC(=O)[C@H](CO)NC(=O)[C@H](CC(=O)O)NC(=O)[C@H](CC(C)C)NC(=O)[C@](C)(Cc1ccccc1)NC(=O)[C@H](CCCCN)NC(=O)[C@H](CO)NC(=O)[C@@H](NC(=O)[C@H](CC(=O)O)NC(=O)[C@H](CO)NC(=O)[C@@H](NC(=O)[C@H](Cc1ccccc1)NC(=O)[C@@H](NC(=O)CNC(=O)[C@H](CCC(N)=O)NC(=O)C(C)(C)NC(=O)[C@@H](N)Cc1c[nH]cn1)[C@@H](C)O)[C@@H](C)O)C(C)C)C(C)C)C(=O)N[C@@H](CC(C)C)C(=O)N[C@@H](CCC(=O)O)C(=O)NC(C)(C)C(=O)NCC(=O)O
# B8: Peptide 136 (peptide)
# peptide: H[Aib]QGTFTSDVSK[αMeF]LDSK([γGlu-γGlu-AEEA-AEEA-γGlu-γGlu-C18 diacid])RARDFVRWLLE[Aib]G-OH
# modifications: N-terminus assumed
# SMILES: CC(C)C[C@H](NC(=O)[C@H](Cc1c[nH]c2ccccc12)NC(=O)[C@H](CCCNC(=N)N)NC(=O)[C@@H](NC(=O)[C@H](Cc1ccccc1)NC(=O)[C@H](CC(=O)O)NC(=O)[C@H](CCCNC(=N)N)NC(=O)[C@H](C)NC(=O)[C@H](CCCNC(=N)N)NC(=O)[C@H](CCCCNC(=O)CC[C@H](NC(=O)CC[C@H](NC(=O)COCCOCCNC(=O)COCCOCCNC(=O)CC[C@H](NC(=O)CC[C@H](NC(=O)CCCCCCCCCCCCCCCCC(=O)O)C(=O)O)C(=O)O)C(=O)O)C(=O)O)NC(=O)[C@H](CO)NC(=O)[C@H](CC(=O)O)NC(=O)[C@H](CC(C)C)NC(=O)[C@](C)(Cc1ccccc1)NC(=O)[C@H](CCCCN)NC(=O)[C@H](CO)NC(=O)[C@@H](NC(=O)[C@H](CC(=O)O)NC(=O)[C@H](CO)NC(=O)[C@@H](NC(=O)[C@H](Cc1ccccc1)NC(=O)[C@@H](NC(=O)CNC(=O)[C@H](CCC(N)=O)NC(=O)C(C)(C)NC(=O)[C@@H](N)Cc1c[nH]cn1)[C@@H](C)O)[C@@H](C)O)C(C)C)C(C)C)C(=O)N[C@@H](CC(C)C)C(=O)N[C@@H](CCC(=O)O)C(=O)NC(C)(C)C(=O)NCC(=O)O
# Columns and labels:
# [1] = target: human GLP-1 receptor (human, UniProt P43220); assay: cell-based or functional assay
# [2] = target: human glucagon receptor (human, UniProt P47871); assay: cell-based or functional assay
Binder,"cAMP production, hGLP-1R EC50 (pM) [1] [pM]","cAMP production, hGluc-R EC50 (pM) [2] [pM]"
B1,45.2,702
B2,264,392
B3,59.4,108
B4,630,984
B5,143,268
B6,104,184
B7,19.1,32.6
B8,45.2,509
